Data: patent WO2010108824A1 (dated 2010)

T1: GST-ABD1+2 of L-plastin (human, UniProt P13796 106-627)
T1 construct: domain: ABD1+2; also called both ABDs combined; combination of the two ABDs; not shown: glutathione S-transferase tag of vector pGEX-2T
T1 sequence (looked up): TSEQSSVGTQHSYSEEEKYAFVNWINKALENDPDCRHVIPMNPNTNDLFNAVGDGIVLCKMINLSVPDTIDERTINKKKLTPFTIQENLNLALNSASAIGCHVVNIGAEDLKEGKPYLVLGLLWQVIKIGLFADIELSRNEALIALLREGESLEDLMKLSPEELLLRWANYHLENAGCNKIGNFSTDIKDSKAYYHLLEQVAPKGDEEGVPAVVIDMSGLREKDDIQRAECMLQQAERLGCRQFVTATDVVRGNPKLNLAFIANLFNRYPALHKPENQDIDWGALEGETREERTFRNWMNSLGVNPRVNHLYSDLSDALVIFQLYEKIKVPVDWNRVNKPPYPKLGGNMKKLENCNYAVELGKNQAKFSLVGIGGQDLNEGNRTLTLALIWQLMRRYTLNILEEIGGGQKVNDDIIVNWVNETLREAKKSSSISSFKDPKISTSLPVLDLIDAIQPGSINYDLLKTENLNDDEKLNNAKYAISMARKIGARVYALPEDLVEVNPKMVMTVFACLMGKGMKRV

B1: human L-plastin (other, UniProt P13796 2-627, looked up)
chain: ARGSVSDEEMMELREAFAKVDTDGNGYISFNELNDLFKAACLPLPGYRVREITENLMATGDLDQDGRISFDEFIKIFHGLKSTDVAKTFRKAINKKEGICAIGGTSEQSSVGTQHSYSEEEKYAFVNWINKALENDPDCRHVIPMNPNTNDLFNAVGDGIVLCKMINLSVPDTIDERTINKKKLTPFTIQENLNLALNSASAIGCHVVNIGAEDLKEGKPYLVLGLLWQVIKIGLFADIELSRNEALIALLREGESLEDLMKLSPEELLLRWANYHLENAGCNKIGNFSTDIKDSKAYYHLLEQVAPKGDEEGVPAVVIDMSGLREKDDIQRAECMLQQAERLGCRQFVTATDVVRGNPKLNLAFIANLFNRYPALHKPENQDIDWGALEGETREERTFRNWMNSLGVNPRVNHLYSDLSDALVIFQLYEKIKVPVDWNRVNKPPYPKLGGNMKKLENCNYAVELGKNQAKFSLVGIGGQDLNEGNRTLTLALIWQLMRRYTLNILEEIGGGQKVNDDIIVNWVNETLREAKKSSSISSFKDPKISTSLPVLDLIDAIQPGSINYDLLKTENLNDDEKLNNAKYAISMARKIGARVYALPEDLVEVNPKMVMTVFACLMGKGMKRV
notes: mature; the assay field says which; also called L-fimbrin; endogenous L-plastin

Columns and labels:
[1] = biological target: the molecule itself; assay: Superdex 200 HR gel filtration of L-plastin alone
GST-ABD1+2 of L-plastin = biological target: T1, GST-ABD1+2 of L-plastin; assay: ITC, nanobody with GST-tagged L-plastin domain
human L-plastin = biological target: B1; assay: ITC, L-plastin titrated with His6-tagged nanobody

| Kd (GST-ABD1+2 of L-plastin) [nM] | Kd (human L-plastin) [nM] | Binder | binding result [1] |
| --- | --- | --- | --- |
|  |  | B1 | binds |
| 46.5 | ~40 | L-plastin nanobody 5 (VHH, Alpaca VHH; His6-tagged recombinant protein (pHEN6c, E. coli) in ITC, gel filtration, pull-down, cross-linking and co-sedimentation; V5-tagged, MOM-V5-tagged or GFP-fused when expressed in PC-3 cells; also called Nb 5; Nb5) VHH: QVQLQESGGGLVQAGDSLRLSCAVSGGTFGRVGVGWFRRAPGKEREFVAAVNWSGISTFYADSVKGRFTISRDDNKHTVDLRMNSLKPEDSAVYFCATDFRFNVPMNGTEYDYWGQGTQVTVSS |  |
